{
  "source": "patent US20190218304A1",
  "about": "“POTENTIATING THE EFFECT OF ATP RELEASE” (INNATE PHARMA, priority 2017, published 2019)",
  "key": {"[1]": {"target": "T1, soluble recombinant human CD39 protein (Homo sapiens, UniProt P49961)", "T1 construct": "made in house; host or cells: CHO cells", "T1 sequence (P49961 with tags, fused parts or gaps)": "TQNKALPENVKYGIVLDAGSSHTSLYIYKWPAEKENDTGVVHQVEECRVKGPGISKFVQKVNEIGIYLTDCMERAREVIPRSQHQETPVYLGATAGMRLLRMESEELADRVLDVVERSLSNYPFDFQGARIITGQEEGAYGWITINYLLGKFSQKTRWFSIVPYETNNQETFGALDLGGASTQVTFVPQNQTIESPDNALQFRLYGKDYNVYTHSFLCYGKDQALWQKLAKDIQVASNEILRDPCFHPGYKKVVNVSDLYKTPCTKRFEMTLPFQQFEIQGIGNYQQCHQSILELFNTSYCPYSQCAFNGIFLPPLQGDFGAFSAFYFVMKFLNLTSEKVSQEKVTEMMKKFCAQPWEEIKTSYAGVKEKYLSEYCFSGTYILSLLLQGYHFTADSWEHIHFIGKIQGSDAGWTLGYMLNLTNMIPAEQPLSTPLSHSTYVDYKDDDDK", "assay": "Inhibition of the enzymatic activity of soluble CD39 (Cell Titer Glo)", "assay_type": "biochemical", "experimental": "The inhibition by antibodies of the enzymatic activity of soluble CD39 protein produced was evaluated using Cell Titer Glo™ (Promega, reference G7571) that allows assessment of ATP hydrolysis through use of a reagent that generates a luminescent signal proportional to the amount of ATP present. In this way, inhibition of the soluble-CD39-meidatd ATP hydrolysis can be assessed. Briefly, dose ranges of anti-CD39 antibodies from 100 μg/ml to 6×10^−3 μg/ml were incubated with 400 ng/ml of soluble recombinant human CD39 protein having the amino acid sequence described in the Methods section (SEQ ID NO: 39), for 1 h at 37° C. 20 μM ATP was added to the plates for 30 additional minutes at 37° C. before addition of CTG (Cell Titer Glo) reagent. Emitted light was quantified using an Enspire™ luminometer after a short incubation period of 5 min in the dark. Anti-CD39 antibody efficacy was determined by comparing emitted light in presence of antibody with ATP alone (maximal light emission) and ATP together with soluble CD39 protein (minimal light emission)."}, "[2]": {"test_system": "MCA205 mouse tumor cells (sarcoma)", "assay": "In vivo combination treatment, MCA205 tumors in human CD39 KI mice", "conditions": "second experimental series: oxaliplatin injected twice, one week apart, one day after I-394", "quoted_text": "1×10^6 MCA205 mouse tumor cells (sarcoma) were subcutaneously engrafted in the right flank of mice genetically modified to express human CD39 (CD39KI mice). […] Tumors were measured twice a week with a caliper (L: length and w: width) and tumor volume was calculated with the formula (L×w2)/2. Mice were sacrificed when tumor volume was above 1800 mm^3 or when tumors were highly necrosed. The human CD39 KI mice were engrafted with MCA205 tumor cells at day 0.\nIn a first experimental series, mice were treated at day 5 post tumor cell engraftment with either control (1 group) PBS, or oxaliplatin chemotherapy (2 groups). In parallel, one group of mice treated with oxaliplatin was injected twice a week with anti-CD39 antibody, with the anti-CD39 antibody treatment starting just one day before oxaliplatin treatment (at day 4)."}, "[3]": {"target": "T2, human Ramos lymphoma cells (Homo sapiens, UniProt P49961)", "T2 construct": "host or cells: Ramos human lymphoma cells", "T2 sequence (P49961 1-510)": "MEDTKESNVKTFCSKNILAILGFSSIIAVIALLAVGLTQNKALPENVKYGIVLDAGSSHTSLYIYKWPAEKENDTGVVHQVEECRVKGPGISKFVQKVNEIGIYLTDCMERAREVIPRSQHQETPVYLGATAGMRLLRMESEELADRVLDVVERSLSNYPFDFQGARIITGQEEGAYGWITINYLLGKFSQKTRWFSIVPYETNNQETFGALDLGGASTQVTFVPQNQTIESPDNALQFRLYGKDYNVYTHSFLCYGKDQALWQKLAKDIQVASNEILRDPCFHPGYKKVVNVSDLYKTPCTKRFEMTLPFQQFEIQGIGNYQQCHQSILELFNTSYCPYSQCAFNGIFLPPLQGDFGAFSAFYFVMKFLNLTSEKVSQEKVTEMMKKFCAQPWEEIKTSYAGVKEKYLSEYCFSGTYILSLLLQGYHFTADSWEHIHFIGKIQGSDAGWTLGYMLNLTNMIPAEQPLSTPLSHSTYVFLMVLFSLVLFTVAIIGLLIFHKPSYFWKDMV", "assay": "Antibody titration by flow cytometry on Ramos cells", "assay_type": "binding", "experimental": "(§1) Cells were incubated with various concentration of unlabeled anti-CD39 antibody from 30 μg/ml to 5×10^−4 μg/ml, for 30 minutes at 4° C. After washes, cells were incubated with Goat anti-mouse H+L labeled secondary antibody for 30 min at 4° C."}, "[4]": {"test_system": "CHO cells expressing cynomolgus (macaca fascicularis) CD39", "assay": "Antibody titration by flow cytometry on CHO-cyCD39", "assay_type": "binding", "experimental": "as §1"}, "[5]": {"test_system": "monocyte-derived DC (moDC)", "assay": "Activation of monocyte-derived dendritic cells in presence of ATP", "assay_type": "cell-based, human", "conditions": "ATP at 0.125 mM, 0.25 mM or 0.5 mM, 24 hours; I-394 shown at 10 μg/ml", "experimental": "While ATP has pro-inflammatory activity, CD39-mediated catabolism of ATP is believed to be able to impair dendritic cell (DC) activation, in turn altering a broader adaptive immune response against tumor antigen. In order to evaluate whether CD39 blockade using anti-CD39 antibodies could overcome CD39-mediated alteration of dendritic cell (DC) activation in the presence of ATP, we incubated monocyte-derived DC (moDC) with anti-CD39 antibodies in the presence of ATP.\nBriefly, human monocytes were purified from human healthy blood and differentiated into MoDC in presence of GM-CSF and IL-4 during 6 days. […] LPS (Invivogen, 10 ng/ml) was used as positive control. To assess resulting effect of ATP-mediated DC activation on CD4 T cells activation, ATP-activated DC were washed and then incubated with allogenic CD4 T cells (ratio 1 MoDC/4 T cells) for a mixed lymphocytes reaction (MLR) during 5 days. T cells activation and proliferation were analyzed through CD25 expression and Cell Trace Violet dilution by flow cytometry (FIG. 8)."}, "[6]": {"target": "T3, human CD39-expressing CHO cells (Homo sapiens, UniProt P49961)", "T3 construct": "expressed in transfected cells; host or cells: CHO cells", "T3 sequence (P49961 1-510)": "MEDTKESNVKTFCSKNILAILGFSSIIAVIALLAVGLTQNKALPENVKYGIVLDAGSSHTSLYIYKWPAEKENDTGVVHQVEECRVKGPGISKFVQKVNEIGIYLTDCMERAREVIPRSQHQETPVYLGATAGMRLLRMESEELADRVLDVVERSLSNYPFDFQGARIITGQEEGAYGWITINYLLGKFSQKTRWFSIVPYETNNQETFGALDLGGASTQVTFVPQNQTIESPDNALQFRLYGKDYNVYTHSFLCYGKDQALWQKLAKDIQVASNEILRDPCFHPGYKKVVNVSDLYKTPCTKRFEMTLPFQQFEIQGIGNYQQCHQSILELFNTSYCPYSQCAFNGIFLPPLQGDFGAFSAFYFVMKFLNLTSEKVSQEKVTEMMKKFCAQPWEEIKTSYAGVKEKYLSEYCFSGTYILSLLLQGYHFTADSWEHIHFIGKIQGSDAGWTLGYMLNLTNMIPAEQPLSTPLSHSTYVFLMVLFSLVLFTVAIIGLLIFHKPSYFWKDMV", "assay": "Inhibition of the enzymatic activity of cellular CD39, CHO-huCD39 cells", "assay_type": "cell-based", "conditions": "result in words", "experimental": "(§2) The inhibition of the CD39 enzymatic activity in CD39-expressing cells by antibodies was evaluated using Cell Titer Glo™ (Promega, reference G7571) that allows assessment of ATP hydrolysis through use of a reagent that generates a luminescent signal proportional to the amount of ATP present. The assay was thus designed to permit assessment of the inhibition of ATP hydrolyzed by CD39 in the cell culture supernatant. Briefly, 5×10^4 Ramos human lymphoma cells, 5×10^3 human CD39-, cynomolgus CD39- and mouse CD39-expressing CHO cells, were incubated 1 hour at 37° C. with anti-CD39 antibodies from 30 μg/ml to 5×10^−4 μg/ml. Cells were then incubated with 20 μM ATP for 1 additional hour at 37° C. Plates were centrifuged for 2 min at 400 g and 50 μl cell supernatant are transferred in a luminescence microplate (white wells). 50 μl CellTiter-Glo® Reagent (CTG) was added to the supernatant and emitted light was quantified after a 5 min incubation in the dark using a Enspire™ luminometer. Anti-CD39 antibody efficacy was determined by comparing emitted light in presence of antibody with ATP alone (maximal light emission) and ATP together with cells (minimal light emission)."}, "[7]": {"test_system": "cynomolgus CD39-expressing CHO cells", "assay": "Inhibition of the enzymatic activity of cellular CD39, CHO-cyCD39 cells", "assay_type": "cell-based", "conditions": "result in words", "experimental": "as §2"}, "[8]": {"target": "T4, CHO cells expressing human CD39 (Homo sapiens, UniProt P49961)", "T4 construct": "expressed in transfected cells; host or cells: CHO cells", "T4 sequence (P49961 1-510)": "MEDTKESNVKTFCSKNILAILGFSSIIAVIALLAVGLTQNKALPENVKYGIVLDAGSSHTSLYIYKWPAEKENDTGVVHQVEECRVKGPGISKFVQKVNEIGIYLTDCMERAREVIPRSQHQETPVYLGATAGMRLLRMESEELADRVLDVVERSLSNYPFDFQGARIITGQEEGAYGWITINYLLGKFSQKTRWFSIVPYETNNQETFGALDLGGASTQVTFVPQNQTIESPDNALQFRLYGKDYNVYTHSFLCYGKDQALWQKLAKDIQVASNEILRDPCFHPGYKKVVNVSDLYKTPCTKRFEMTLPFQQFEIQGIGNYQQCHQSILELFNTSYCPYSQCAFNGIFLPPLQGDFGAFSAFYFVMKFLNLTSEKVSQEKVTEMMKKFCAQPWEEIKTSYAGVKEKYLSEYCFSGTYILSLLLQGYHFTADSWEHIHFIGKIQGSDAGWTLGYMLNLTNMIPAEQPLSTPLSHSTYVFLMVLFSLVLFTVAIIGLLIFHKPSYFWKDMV", "assay": "Antibody titration by flow cytometry on CHO-huCD39", "assay_type": "binding", "experimental": "as §1"}},
  "note": "Entries after “also recorded” stand apart in the source; their conditions may differ.",
  "data": [
    {"molecule": "I-394: anti-CD39 antibody, VH SEQ ID NO: 3, VL SEQ ID NO: 4; heavy and light chains SEQ ID NOS: 37 and 38 (antibody, Chimeric homo sapiens mus musculus) heavy: EVQLQQSGPELVKPGASVKMSCKASGYTFTDYNMHWVKQSHGRTLEWIGYIVPLNGGSTFNQKFKGRATLTVNTSSRTAYMELRSLTSEDSAAYYCARGGTRFAYWGQGTLVTVSAASTKGPSVFPLAPSSKSTSGGTAALGCLVKDYFPEPVTVSWNSGALTSGVHTFPAVLQSSGLYSLSSVVTVPSSSLGTQTYICNVNHKPSNTKVDKRVEPKSCDKTHTCPPCPAPEAEGAPSVFLFPPKPKDTLMISRTPEVTCVVVDVSHEDPEVKFNWYVDGVEVHNAKTKPREEQYNSTYRVVSVLTVLHQDWLNGKEYKCKVSNKALPSSIEKTISKAKGQPREPQVYTLPPSREEMTKNQVSLTCLVKGFYPSDIAVEWESNGQPENNYKTTPPVLDSDGSFFLYSKLTVDKSRWQQGNVFSCSVMHEALHNHYTQKSLSLSPGK light: DIVLTQSPASLAVSLGQRATISCRASESVDNFGVSFMYWFQQKPGQPPNLLIYGASNQGSGVPARFRGSGSGTDFSLNIHPMEADDTAMYFCQQTKEVPYTFGGGTKLEIKRTVAAPSVFIFPPSDEQLKSGTASVVCLLNNFYPREAKVQWKVDNALQSGNSQESVTEQDSKDSTYSLSSTLTLSKADYEKHKVYACEVTHQGLSSPVTKSFNRGEC", "values": [
      {"measurement": "maximum inhibition achieved, soluble CD39", "setting": "[1]; 400 ng/ml soluble CD39, 20 μM ATP", "result": 74.9, "unit": "%"},
      {"measurement": "inhibition of ATPase activity of soluble CD39 when spiked into negative hybridoma supernatants", "setting": "[1]; antibody added to hybridoma supernatants negative for sCD39 inhibition", "result": "did not restore the ability of negative supernatants to inhibit ATPase activity of CD39"},
      {"measurement": "inhibition of ATPase activity after purification from negative supernatant", "setting": "[1]; antibody purified from the negative supernatant with Protein A coated beads", "result": "again able to inhibit"},
      {"measurement": "inhibition of the enzymatic (ATPase) activity of soluble CD39 protein", "setting": "[1]; result in words", "result": "strong inhibition; also recorded: inhibit soluble CD39; also recorded: inhibits the enzymatic activity; also recorded: highly potent at blocking the enzymatic activity"},
      {"measurement": "effect on tumor growth / tumor volume and mice survival", "setting": "[2]", "result": "only marginal effect"},
      {"measurement": "binding to Ramos lymphoma cells", "setting": "[3]", "result": "bound; also recorded: binds"},
      {"measurement": "binding to cells expressing cynomolgus CD39 (CHO-cyCD39)", "setting": "[4]", "result": "bound; also recorded: binds"},
      {"measurement": "moDC activation as assessed by HLA-DR or CD83 expression", "setting": "[5]", "result": "permitted moDC activation; also recorded: lead to moDC activation"},
      {"measurement": "blocking CD39 enzymatic activity in cells expressing human CD39 (CHO-huCD39)", "setting": "[6]", "result": "blocks CD39 enzymatic activity; also recorded: highly potent at blocking CD39 enzymatic activity"},
      {"measurement": "blocking CD39 enzymatic activity in cells expressing cynomolgus CD39 (CHO-cyCD39)", "setting": "[7]", "result": "blocks CD39 enzymatic activity; also recorded: highly potent at blocking CD39 enzymatic activity"},
      {"measurement": "binding to cells expressing human CD39 (CHO-huCD39)", "setting": "[8]", "result": "bound; also recorded: binds"}
    ]}
  ]
}
